Source: patent US20220048967A1 (published 2022)
Numbered stars: 1 amine (or outer) side, 2 acyl side, 3 side chain; on linkers, the order of the positions; unused ones are H or OH. Square brackets hold non-standard residues; d marks the D form. Side chains are listed from the residue outwards. Ends that are not written are not given here. * marks the point of attachment. C20 diacid = O=C(O)CCCCCCCCCCCCCCCCCCC(=O)*; C18 diacid = O=C(O)CCCCCCCCCCCCCCCCC(=O)*; γGlu = O=C(O)[C@H](CCC(=O)[*:2])N[*:1]; AEEA = NCCOCCOCC(=O)O; Aib = CC(C)(N)C(=O)O

B1: Example 309 (peptide)
peptide: YXEGTXTSDYSILLDKKAQXAFIEYLIAGGPSSG
modifications: Aib2, αMeF6, (2-[2-(2-Amino-ethoxy)-ethoxy]-acetyl)2-(γ-Glu)-CO-(CH2)16-CO2H on K17, Aib20, C-terminal NH2
B2: Example 310 (peptide)
peptide: YXEGTXTSDYSILLDKKAQXEFIEYLIAGGPSSG
modifications: Aib2, αMeF6, (2-[2-(2-Amino-ethoxy)-ethoxy]-acetyl)2-(γ-Glu)-CO-(CH2)16-CO2H on K17, Aib20, C-terminal NH2
B3: Example 311 (peptide)
peptide: YXEGTXTSDYSILLDEKAQXAFIEYLIEGGPSSG
modifications: Aib2, αMeF(2F)6, (2-[2-(2-Amino-ethoxy)-ethoxy]-acetyl)2-(γ-Glu)-CO-(CH2)16-CO2H on K17, Aib20, C-terminal NH2
B4: Example 312 (peptide)
peptide: YXEGTXTSDYSILLDKKAQXEFIEYLIEGGPSSG
modifications: Aib2, αMeF(2F)6, (2-[2-(2-Amino-ethoxy)-ethoxy]-acetyl)2-(γ-Glu)-CO-(CH2)16-CO2H on K17, Aib20, C-terminal NH2
B5: Example 313 (peptide)
peptide: YXEGTXTSDYSILLDKKAQXAFIEYLIAGGPSSG
modifications: Aib2, αMeF(2F)6, (2-[2-(2-Amino-ethoxy)-ethoxy]-acetyl)2-(γ-Glu)-CO-(CH2)16-CO2H on K17, Aib20, C-terminal NH2
B6: Example 314 (peptide)
peptide: YXEGTXTSDYSILLDKKAQXEFIEYLIAGGPSSG
modifications: Aib2, αMeF(2F)6, (2-[2-(2-Amino-ethoxy)-ethoxy]-acetyl)2-(γ-Glu)-CO-(CH2)16-CO2H on K17, Aib20, C-terminal NH2
B7: Example 315 (peptide)
peptide: YXEGTFTSDYSILLDKKAQXAFIEYLIEGGPSSGAPPPS
modifications: Aib2, (2-[2-(2-Amino-ethoxy)-ethoxy]-acetyl)2-(γ-Glu)-CO-(CH2)16-CO2H on K17, Aib20, C-terminal NH2
B8: Example 316 (peptide)
peptide: Y[Aib]EGTFTSDYSILLDKK([AEEA-AEEA-γGlu-C18 diacid])AQ[Aib]AFIEYLIAGGPSSGAPPPS-NH2
modifications: N-terminus assumed
SMILES: CC[C@H](C)[C@H](NC(=O)[C@H](CC(C)C)NC(=O)[C@H](Cc1ccc(O)cc1)NC(=O)[C@H](CCC(=O)O)NC(=O)[C@@H](NC(=O)[C@H](Cc1ccccc1)NC(=O)[C@H](C)NC(=O)C(C)(C)NC(=O)[C@H](CCC(N)=O)NC(=O)[C@H](C)NC(=O)[C@H](CCCCNC(=O)COCCOCCNC(=O)COCCOCCNC(=O)CC[C@H](NC(=O)CCCCCCCCCCCCCCCCC(=O)O)C(=O)O)NC(=O)[C@H](CCCCN)NC(=O)[C@H](CC(=O)O)NC(=O)[C@H](CC(C)C)NC(=O)[C@H](CC(C)C)NC(=O)[C@@H](NC(=O)[C@H](CO)NC(=O)[C@H](Cc1ccc(O)cc1)NC(=O)[C@H](CC(=O)O)NC(=O)[C@H](CO)NC(=O)[C@@H](NC(=O)[C@H](Cc1ccccc1)NC(=O)[C@@H](NC(=O)CNC(=O)[C@H](CCC(=O)O)NC(=O)C(C)(C)NC(=O)[C@@H](N)Cc1ccc(O)cc1)[C@@H](C)O)[C@@H](C)O)[C@@H](C)CC)[C@@H](C)CC)C(=O)N[C@@H](C)C(=O)NCC(=O)NCC(=O)N1CCC[C@H]1C(=O)N[C@@H](CO)C(=O)N[C@@H](CO)C(=O)NCC(=O)N[C@@H](C)C(=O)N1CCC[C@H]1C(=O)N1CCC[C@H]1C(=O)N1CCC[C@H]1C(=O)N[C@@H](CO)C(N)=O
B9: Example 317 (peptide)
peptide: Y[Aib]EGTFTSDYSILLDKK([AEEA-AEEA-γGlu-C20 diacid])AQ[Aib]AFIEYLIAGGPSSG-NH2
modifications: N-terminus assumed
SMILES: CC[C@H](C)[C@H](NC(=O)[C@H](CC(C)C)NC(=O)[C@H](Cc1ccc(O)cc1)NC(=O)[C@H](CCC(=O)O)NC(=O)[C@@H](NC(=O)[C@H](Cc1ccccc1)NC(=O)[C@H](C)NC(=O)C(C)(C)NC(=O)[C@H](CCC(N)=O)NC(=O)[C@H](C)NC(=O)[C@H](CCCCNC(=O)COCCOCCNC(=O)COCCOCCNC(=O)CC[C@H](NC(=O)CCCCCCCCCCCCCCCCCCC(=O)O)C(=O)O)NC(=O)[C@H](CCCCN)NC(=O)[C@H](CC(=O)O)NC(=O)[C@H](CC(C)C)NC(=O)[C@H](CC(C)C)NC(=O)[C@@H](NC(=O)[C@H](CO)NC(=O)[C@H](Cc1ccc(O)cc1)NC(=O)[C@H](CC(=O)O)NC(=O)[C@H](CO)NC(=O)[C@@H](NC(=O)[C@H](Cc1ccccc1)NC(=O)[C@@H](NC(=O)CNC(=O)[C@H](CCC(=O)O)NC(=O)C(C)(C)NC(=O)[C@@H](N)Cc1ccc(O)cc1)[C@@H](C)O)[C@@H](C)O)[C@@H](C)CC)[C@@H](C)CC)C(=O)N[C@@H](C)C(=O)NCC(=O)NCC(=O)N1CCC[C@H]1C(=O)N[C@@H](CO)C(=O)N[C@@H](CO)C(=O)NCC(N)=O

Assays:
[1] = biological target: T1, human gastric inhibitory peptide receptor (GIPR) (human, UniProt P48546 22-466); assay: cell-based or functional assay
T1 sequence (looked up): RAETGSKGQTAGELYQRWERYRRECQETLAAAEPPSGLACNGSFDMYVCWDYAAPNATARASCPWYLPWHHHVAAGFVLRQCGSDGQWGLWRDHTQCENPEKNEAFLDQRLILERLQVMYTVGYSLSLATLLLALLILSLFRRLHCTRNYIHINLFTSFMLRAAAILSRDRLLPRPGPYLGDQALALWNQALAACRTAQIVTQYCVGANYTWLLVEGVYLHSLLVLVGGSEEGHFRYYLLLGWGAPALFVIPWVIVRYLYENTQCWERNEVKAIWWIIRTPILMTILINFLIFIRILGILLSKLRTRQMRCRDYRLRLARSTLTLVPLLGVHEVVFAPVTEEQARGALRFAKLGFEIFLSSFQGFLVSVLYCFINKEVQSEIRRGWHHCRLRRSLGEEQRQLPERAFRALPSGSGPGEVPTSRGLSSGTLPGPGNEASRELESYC

[2] = biological target: human GLP-1 receptor (GLP-1R) (human, UniProt P43220 24-463); assay: cell-based or functional assay

Row | Binder | hGIPR cAMP EC50 ratio [1] | hGIPR cAMP Rel EC50 [1] | hGLP1R cAMP EC50 ratio [2] | hGLP1R cAMP Rel EC50 [2]
1 | B1 | 1.64 | 0.0389 nM | 1.27 | 0.033 nM
2 | B2 | 5.56 | 0.0176 nM | 1.43 | 0.0283 nM
3 | B3 | 3.5 | 0.0334 nM | 1.04 | 0.0393 nM
4 | B4 | 4.76 | 0.0207 nM | 1.53 | 0.0262 nM
5 | B5 | 2.87 | 0.0233 nM | 0.867 | 0.0388 nM
6 | B6 | 2.81 | 0.029 nM | 1.48 | 0.029 nM
7 | B7 | – | 0.0408 nM | – | 0.0651 nM
8 | B8 | 3.75 | 0.024 nM | 0.644 | 0.122 nM
9 | B9 | 1.01 | 0.0948 nM | 0.333 | 0.172 nM
